# Test results as given in patent US20150224182A1 (UNIVERSITY OF VIRGINIA PATENT FOUNDATION, published 2015).
# Non-standard residues stand in square brackets, D forms with d. No end group written: not given here. pT = C[C@@H](OP(=O)(O)O)[C@H](N)C(=O)O; pS = N[C@@H](COP(=O)(O)O)C(=O)O
# B1: CCDC45 phosphopeptide KPPYRSHsL (peptide)
# peptide: KPPYRSH[pS]L
# B2: TBC1D10C phosphopeptide KPQTRGKtF (peptide)
# peptide: KPQTRGK[pT]F
# notes: also called Carabin
# B3: DSsEEKFL (peptide)
# peptide: DS[pS]EEKFL
# notes: From Statherin (saliva), UniProt P02808
# B4: GGSFGGRSSGsP (peptide)
# peptide: GGSFGGRSSG[pS]P
# notes: From HNRNPA3, UniProt P51991
# B5: GLLsPARLYAI (peptide)
# peptide: GLL[pS]PARLYAI
# notes: From Leucine rich PPR-motif containing protein, UniProt P42704
# B6: ILDsGIYRI (peptide)
# peptide: ILD[pS]GIYRI
# notes: From Hermansky-Pudlak syndrome 5 protein, UniProt Q9UPZ3
# B7: KAKsPAPGL (peptide)
# peptide: KAK[pS]PAPGL
# notes: From Nuclear receptor corepressor 2, UniProt Q9Y618
# B8: KIFsGVFVKV (peptide)
# peptide: KIF[pS]GVFVKV
# notes: From 60S ribosomal protein L7-like 1, UniProt Q6DKI1
# B9: KLDsPRVTV (peptide)
# peptide: KLD[pS]PRVTV
# notes: From Protein FAM86A, UniProt Q96G04
# B10: KLFsPSKEAEL (peptide)
# peptide: KLF[pS]PSKEAEL
# notes: From Protein cramped-like, UniProt Q96RY5
# B11: KLLQFYPsL (peptide)
# peptide: KLLQFYP[pS]L
# B12: KLMAPDIsL (peptide)
# peptide: KLMAPDI[pS]L
# B13: MACF1 phosphopeptide KPRsPDHVL (peptide)
# peptide: KPR[pS]PDHVL
# B14: KMDsFLDMQL (peptide)
# peptide: KMD[pS]FLDMQL
# B15: KMYsEIDIKV (peptide)
# peptide: KMY[pS]EIDIKV
# notes: From 116 kDa U5 small nuclear ribonucleoprotein component, UniProt Q15029
# B16: KVAsLLHQV (peptide)
# peptide: KVA[pS]LLHQV
# B17: KVLsTEEMEL (peptide)
# peptide: KVL[pS]TEEMEL
# notes: From Protein FAM128B, UniProt Q6NZ67
# B18: MLAEsPSVPRL (peptide)
# peptide: MLAE[pS]PSVPRL
# notes: From Putative uncharacterized protein, UniProt Q8WUC7
# B19: RLAsLNAEAL (peptide)
# peptide: RLA[pS]LNAEAL
# notes: From Bromo adjacent homology domain-containing 1 protein, UniProt Q8TBE0
# B20: RPR(sLss)PTVTL (peptide)
# peptide: RPRSLSSPTVTL
# modifications: also: one of Ser4, Ser6, Ser7 phosphorylated
# notes: From E3 ubiquitin-protein ligase NEDD4-like, UniProt Q96PU5
# B21: RQAsLSISV (peptide)
# peptide: RQA[pS]LSISV
# notes: From Protein kinase 2D, UniProt A0JLT6
# B22: RQIsFKAEV (peptide)
# peptide: RQI[pS]FKAEV
# notes: From Ubiquitin-conjugating enzyme E2 J1, UniProt Q9Y385
# B23: RTYsGPMNKV (peptide)
# peptide: RTY[pS]GPMNKV
# notes: From POF1B, UniProt Q8WVV4
# B24: VLMK(sPs)PAL (peptide)
# peptide: VLMKSPSPAL
# modifications: also: one of S5 or S7 phosphorylated
# notes: From YTHDC2, UniProt Q9H6S0
# B25: YQLsPTKLPSI (peptide)
# peptide: YQL[pS]PTKLPSI
# notes: From Nibrin/cell cycle regulatory protein p95, UniProt O60934
# B26: MAP7D1 phosphopeptide LPAsPRARL (peptide)
# peptide: LPA[pS]PRARL
# B27: C6orf64 phosphopeptide RPAsARAQPGL (peptide)
# peptide: RPA[pS]ARAQPGL
# B28: phosphopeptide RPAtGGPGVA (no gene name in Table 7; Unknown protein) (peptide)
# peptide: RPA[pT]GGPGVA
# B29: C17orf85 phosphopeptide RPHsPEKAF (peptide)
# peptide: RPH[pS]PEKAF
# B30: PPP1CA phosphopeptide RPItPPRNSA (peptide)
# peptide: RPI[pT]PPRNSA
# B31: EP300 phosphopeptide RPKLSsPAL (peptide)
# peptide: RPKLS[pS]PAL
# B32: TLK1 phosphopeptide RPNsPSPTAL (peptide)
# peptide: RPN[pS]PSPTAL
# B33: KLF2 phosphopeptide RPPPPPDtPP (peptide)
# peptide: RPPPPPD[pT]PP
# B34: MYL9 phosphopeptide RPQRATsNVF (peptide)
# peptide: RPQRAT[pS]NVF
# B35: RREB1 phosphopeptide RPRANsGGVDL (peptide)
# peptide: RPRAN[pS]GGVDL
# B36: MIIP phosphopeptide RPRPHsAPSL (peptide)
# peptide: RPRPH[pS]APSL
# B37: AKAP13 phosphopeptide RPRsAVLL (peptide)
# peptide: RPR[pS]AVLL
# B38: MEFV phosphopeptide RPRsLEVTI (peptide)
# peptide: RPR[pS]LEVTI
# notes: also called Pyrin
# B39: ZNF219 phosphopeptide RPRsPAARL (peptide)
# peptide: RPR[pS]PAARL
# B40: GTF2IRD1 phosphopeptide RPRsPGSNSKV (peptide)
# peptide: RPR[pS]PGSNSKV
# B41: GRM5 phosphopeptide RPRsPSPIS (peptide)
# peptide: RPR[pS]PSPIS
# B42: RBM17 phosphopeptide RPRsPTGPsNSF (peptide)
# peptide: RPR[pS]PTGP[pS]NSF
# notes: also called Splicing factor 45
# B43: SYNPO phosphopeptide RPSRSsPGL (peptide)
# peptide: RPSRS[pS]PGL
# B44: TSC22D4 phosphopeptide RPsSPALYF (peptide)
# peptide: RP[pS]SPALYF
# B45: HIVEP2 phosphopeptide RPVsPGKDI (peptide)
# peptide: RPV[pS]PGKDI
# B46: SKI phosphopeptide RPWsPAVSA (peptide)
# peptide: RPW[pS]PAVSA
# B47: LPP phosphopeptide RRSsLDAEIDSL (peptide)
# peptide: RRS[pS]LDAEIDSL
# B48: IP6K1 phosphopeptide RSEsKDRKL (peptide)
# peptide: RSE[pS]KDRKL
# B49: KIAA0889 phosphopeptide RSGsLERKV (peptide)
# peptide: RSG[pS]LERKV
# notes: also called C20orf117
# B50: RBM15 phosphopeptide RSLsPGGAA (peptide)
# peptide: RSL[pS]PGGAA
# B51: ATXN2L phosphopeptide SPAsPKISL (peptide)
# peptide: SPA[pS]PKISL
# B52: CCDC88B phosphopeptide SPEKAGRRsSL (peptide)
# peptide: SPEKAGRR[pS]SL
# B53: ZFP106 phosphopeptide SPGLARKRsL (peptide)
# peptide: SPGLARKR[pS]L
# B54: RCSD1 phosphopeptide SPKsPGLKA (peptide)
# peptide: SPK[pS]PGLKA
# B55: phosphopeptide SPRsPGKPM (no gene name in Table 7; no database hit) (peptide)
# peptide: SPR[pS]PGKPM
# B56: CHAF1A phosphopeptide SPRsPSTTYL (peptide)
# peptide: SPR[pS]PSTTYL
# B57: ANKRD17 phosphopeptide SPSsPSVRRQL (peptide)
# peptide: SPS[pS]PSVRRQL
# B58: C1orf63 phosphopeptide SPSTSRSGGsSRL (peptide)
# peptide: SPSTSRSGG[pS]SRL
# B59: TPX2 phosphopeptide TPAQPQRRsL (peptide)
# peptide: TPAQPQRR[pS]L
# B60: RUNX1 phosphopeptide TPIsPGRASGM (peptide)
# peptide: TPI[pS]PGRASGM
# B61: SVIL phosphopeptide VPRsPKHAHSSSL (peptide)
# peptide: VPR[pS]PKHAHSSSL
# notes: also called Supervillin
# B62: GIGYF2 phosphopeptide YQRsFDEVEGV (peptide)
# peptide: YQR[pS]FDEVEGV
# B63: GIGYF2 phosphopeptide YQRsFDEVEGVF (peptide)
# peptide: YQR[pS]FDEVEGVF
# B64: HMGN1 phosphopeptide EPKRRsARL (peptide)
# peptide: EPKRR[pS]ARL
# B65: RBM14 phosphopeptide FRRsPTKSSL (peptide)
# peptide: FRR[pS]PTKSSL
# B66: MAP1A phosphopeptide KPAsPARRL (peptide)
# peptide: KPA[pS]PARRL
# B67: ZC3H14 phosphopeptide KPAsPKFIVTL (peptide)
# peptide: KPA[pS]PKFIVTL
# B68: MORC2 phosphopeptide KPPsPEHQSL (peptide)
# peptide: KPP[pS]PEHQSL
# Tests used:
# HLA-B*0702 [1] = target: T1, HLA-B*0702 (human); test: HLA-B7 eluate MS; AML1; 1 means <1 copy/cell
# T1 construct: also called HLA-B7
# From the text: (§1) The mixture was subjected to centrifugation and the resulting supernatant was passed over protein A sepharose pre-loaded with the HLA-A2-specific antibody BB7.2 or HLA-B7-specific antibody ME1. Peptides were eluted from the purified class I MHC molecules with 10% acetic acid.
# HLA-B*0702 [2] = target: T1, HLA-B*0702; test: HLA-B7 eluate MS; ALL1; 1 means <1 copy/cell
# From the text: as §1
# HLA-A*0201 = target: T2, HLA-A*0201 (human); test: listed as presented with class I MHC on cancer cells (leukemia or transformed B cells)
# T2 construct: also called HLA-A2
# HLA-B*0702 [3] = target: T1, HLA-B*0702; test: HLA-B7 eluate MS; AML1; 2 means 1-5 copies/cell
# From the text: as §1
Binder,binding result (HLA-B*0702 [2]),binding result (HLA-A*0201),further results
B1,,,binding result (HLA-B*0702 [1]): binds
B2,binds,,
B3,,binds,
B4,,binds,
B5,,binds,
B6,,binds,
B7,,binds,
B8,,binds,
B9,,binds,
B10,,binds,
B11,,binds,
B12,,binds,
B13,binds,,
B14,,binds,
B15,,binds,
B16,,binds,
B17,,binds,
B18,,binds,
B19,,binds,
B20,,binds,
B21,,binds,
B22,,binds,
B23,,binds,

Binder,binding result (HLA-B*0702 [2]),binding result (HLA-A*0201),further results
B24,,binds,
B25,,binds,
B26,,,binding result (HLA-B*0702 [1]): binds
B27,binds,,
B28,binds,,
B29,binds,,
B30,binds,,
B31,,,binding result (HLA-B*0702 [1]): binds
B32,binds,,
B33,binds,,
B34,,,binding result (HLA-B*0702 [3]): binds
B35,,,binding result (HLA-B*0702 [3]): binds
B36,,,binding result (HLA-B*0702 [3]): binds
B37,,,binding result (HLA-B*0702 [3]): binds
B38,,,binding result (HLA-B*0702 [1]): binds
B39,,,binding result (HLA-B*0702 [1]): binds
B40,,,binding result (HLA-B*0702 [1]): binds
B41,,,binding result (HLA-B*0702 [3]): binds
B42,,,binding result (HLA-B*0702 [3]): binds
B43,,,binding result (HLA-B*0702 [3]): binds
B44,binds,,
B45,binds,,
B46,binds,,

Binder,binding result (HLA-B*0702 [2]),binding result (HLA-A*0201),further results
B47,,,binding result (HLA-B*0702 [1]): binds
B48,binds,,
B49,binds,,
B50,binds,,
B51,binds,,
B52,,,binding result (HLA-B*0702 [1]): binds
B53,,,binding result (HLA-B*0702 [1]): binds
B54,binds,,
B55,binds,,
B56,,,binding result (HLA-B*0702 [3]): binds
B57,,,binding result (HLA-B*0702 [3]): binds
B58,,,binding result (HLA-B*0702 [1]): binds
B59,binds,,
B60,binds,,
B61,,,binding result (HLA-B*0702 [1]): binds
B62,,,binding result (HLA-B*0702 [1]): binds
B63,,,binding result (HLA-B*0702 [3]): binds
B64,,,binding result (HLA-B*0702 [1]): binds
B65,,,binding result (HLA-B*0702 [3]): binds
B66,binds,,
B67,,,binding result (HLA-B*0702 [3]): binds
B68,binds,,
